Reference: publication PMC5767221

Target: mGlu5-NanoLuc (UniProt P31424)
Assay: FRET or BRET; intermolecular BRET imaging in live hippocampal neurons expressing mGlu5-NanoLuc (donor) and Venus-Homer (acceptor); recorded for 30 min in soma and dendritic spines; control KCl 3 mM, and before and during depolarization with KCl 55 mM

Chain of UniProt P31424 (P31424 21-1203): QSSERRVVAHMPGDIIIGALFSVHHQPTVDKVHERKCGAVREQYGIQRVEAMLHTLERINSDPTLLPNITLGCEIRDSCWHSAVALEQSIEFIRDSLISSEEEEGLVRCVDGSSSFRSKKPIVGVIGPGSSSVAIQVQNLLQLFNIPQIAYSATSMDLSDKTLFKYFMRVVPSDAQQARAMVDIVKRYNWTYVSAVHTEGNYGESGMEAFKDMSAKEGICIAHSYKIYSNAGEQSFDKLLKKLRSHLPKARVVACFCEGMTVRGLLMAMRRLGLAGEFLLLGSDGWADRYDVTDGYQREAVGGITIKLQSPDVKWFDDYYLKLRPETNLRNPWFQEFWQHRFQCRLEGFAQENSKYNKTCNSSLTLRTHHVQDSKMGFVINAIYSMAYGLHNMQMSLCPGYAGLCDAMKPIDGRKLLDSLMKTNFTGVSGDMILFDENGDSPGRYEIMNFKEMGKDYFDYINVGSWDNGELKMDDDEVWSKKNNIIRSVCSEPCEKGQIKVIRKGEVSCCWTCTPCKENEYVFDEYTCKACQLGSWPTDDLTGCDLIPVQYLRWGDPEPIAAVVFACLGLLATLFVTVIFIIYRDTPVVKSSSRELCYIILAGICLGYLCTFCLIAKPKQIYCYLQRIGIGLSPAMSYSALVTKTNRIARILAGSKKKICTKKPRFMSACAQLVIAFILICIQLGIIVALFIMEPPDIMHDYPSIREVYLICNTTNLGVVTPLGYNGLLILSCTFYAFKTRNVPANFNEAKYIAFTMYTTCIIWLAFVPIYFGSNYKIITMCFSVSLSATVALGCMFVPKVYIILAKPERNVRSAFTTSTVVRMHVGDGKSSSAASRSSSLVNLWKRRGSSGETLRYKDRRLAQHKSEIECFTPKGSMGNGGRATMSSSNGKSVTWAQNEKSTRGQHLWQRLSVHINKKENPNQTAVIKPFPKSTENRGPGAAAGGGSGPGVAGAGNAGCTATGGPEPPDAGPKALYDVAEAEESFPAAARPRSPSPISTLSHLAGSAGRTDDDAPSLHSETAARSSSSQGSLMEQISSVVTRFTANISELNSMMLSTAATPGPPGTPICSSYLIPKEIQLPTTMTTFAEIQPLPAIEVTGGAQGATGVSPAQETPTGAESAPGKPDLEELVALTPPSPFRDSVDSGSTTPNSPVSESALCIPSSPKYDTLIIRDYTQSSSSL

Venus-Homer (from UniProt Q9Z214 1-366) (natural protein)
drop of BRET signal with KCl 55 mM against before depolarization (soma): 15%
drop of BRET signal with KCl 55 mM against before depolarization (spines): 16%
